Earlier results as cited in article PMC7539009.
pKd: −log10 of the molar value.

Biological target: VPS29 (Homo sapiens) (UniProt Q9UBQ0)
Assay: ITC

With TBC1D5 132-158 (from UniProt Q92609) as the substance, how does the pKd read?
Its pKd is 4.70.
